Consider ten sequences from the supplement of paper PMC5998384.

Series [1] deals with HeLa Kyoto. The series can be described thus: solubility in G1/S (NP-40 vs SDS abundance) (log2 ratio); higher = more soluble. Particulars: cell cycle stage: G1/S.
For series [2], the system named is HeLa Kyoto. The series can be described thus: melting temperature (median over replicates), in situ; higher = more thermally stable.
Series [3] relates to HeLa Kyoto. Description: solubility change mitosis vs G1/S (difference of NP-40 vs SDS log2 ratios) (log2 ratio difference); higher = more soluble in mitosis.
The test system of series [4] is HeLa Kyoto. Description: thermal stability score vs G1/S (z-score of summed log2 fold changes over temperatures); higher = more thermally stable than in G1/S.
Where [5] appears, read: cell cycle stage: early G1 (4.5 h after nocodazole release).
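Throughout, for melting temperature (median over replicates), in situ: HeLa Kyoto cells synchronized by double thymidine or nocodazole block, proteins quantified by TMT10plex mass spectrometry, three independent biological replicates.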
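Throughout, for solubility change mitosis vs G1/S (difference of NP-40 vs SDS log2 ratios): synchronized HeLa Kyoto cells (double thymidine block for G1/S, nocodazole release for mitosis), protein amounts in NP-40 versus SDS lysates quantified by mass spectrometry, three biological replicates.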
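Throughout, for solubility in G1/S (NP-40 vs SDS abundance): HeLa Kyoto cells arrested at G1/S by double thymidine block, proteins quantified by TMT10plex mass spectrometry in mild NP-40 versus SDS extracts, three biological replicates.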
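Throughout, for thermal stability score vs G1/S (z-score of summed log2 fold changes over temperatures): synchronized HeLa Kyoto cells, proteins quantified by TMT10plex mass spectrometry, three biological replicates, mitosis taken 0.5 h after nocodazole release, G1/S directly after double thymidine block.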

As for “MAAHGGSAASSALKGLIQQFTTITGASESVGKHMLEACNNNLEMAVTMFLDGGGIAEEPSTSSASVSTVRPHTEEEVRAPIPQKQEILVEPEPLFGAPKRRRPARSIFDGFRDFQTETIRQEQELRNGGAIDKKLTTLADLFRPPIDLMHKGSFETAKECGQMQNKWLMINIQNVQDFACQCLNRDVWSNEAVKNIIREHFIFWQVYHDSEEGQRYIQFYKLGDFPYVSILDPRTGQKLVEWHQLDVSSFLDQVTGFLGEHGQLDGLSSSPPKKCARSESLIDASEDSQLEAAIRASLQETHFDSTQTKQDSRSDEESESELFSGSEEFISVCGSDEEEEVENLAKSRKSPHKDLGHRKEENRRPLTEPPVRTDPGTATNHQGLPAVDSEILEMPPEKADGVVEGIDVNGPKAQLMLRYPDGKREQITLPEQAKLLALVKHVQSKGYPNERFELLTNFPRRKLSHLDYDITLQEAGLCPQETVFVQERN [UBXN7]”, the “solubility in G1/S (log2)” value in series [1] amounted to 0.148. For the same sequence, the melting temperature in series [2] (cell cycle stage: G1/S) and in series [2] (cell cycle stage: mitosis) was 52.8 °C in each case. Moreover, the “solubility change mitosis (log2)” value in series [3] is -0.138. For the same sequence, the thermal stability score in series [4] (setting [5]) is -0.156; in series [4] (cell cycle stage: mitosis) it was -0.248.
Regarding “MAAHRPGPLKQQNKAHKGGRHRGRGSAQRDGKGRLALKTLSKKVRKELSRVDQRHRASQLRKQKKEAVLAEKRQLGGKDGPPHQVLVVPLHSRISLPEAMQLLQDRDTGTVHLNELGNTQNFMLLCPRLKHRWFFTSARPGDLHVVLDMAKVADTILFLLDPLEGWDSTGDYCLSCLFAQGLPTYTLAVQGISGLPLKKQIDTRKKLSKAVEKRFPHDKLLLLDTQQEAGMLLRQLANQKQQHLAFRDRRAYLFAHAVDFVPSEENNLVGTLKISGYVRGQTLNVNRLLHIVGYGDFQMKQIDAPGDPFPLNPRGIKPQKDPDMAMEICATDAVDDMEEGLKVLMKADPGRQESLQAEVIPDPMEGEQTWPTEEELSEAKDFLKESSKVVKKVPKGTSSYQAEWILDGGSQSGGEGDEYEYDDMEHEDFMEEESQDESSEEEEEYETMTIGESVHDDLYDKKVDEEAEAKMLEKYKQERLEEMFPDEVDTPRDVAARIRFQKYRGLKSFRTSPWDPKENLPQDYARIFQFQNFTNTRKSIFKEVEEKEVEGAEVGWYVTLHVSEVPVSVVECFRQGTPLIAFSLLPHEQKMSVLNMVVRRDPGNTEPVKAKEELIFHCGFRRFRASPLFSQHTAADKHKLQRFLTADMALVATVYAPITFPPASVLLFKQKSNGMHSLIATGHLMSVDPDRMVIKRVVLSGHPFKIFTKMAVVRYMFFNREDVLWFKPVELRTKWGRRGHIKEPLGTHGHMKCSFDGKLKSQDTVLMNLYKRVFPKWTYDPYVPEPVPWLKSEISSTVPQGGME [TSR1]”, the “solubility in G1/S (log2)” value in series [1] was -0.634. For the same sequence, the melting temperature is 48.3 °C in series [2] (cell cycle stage: G1/S) and 50.6 °C in series [2] (cell cycle stage: mitosis). Moreover, the “solubility change mitosis (log2)” value in series [3] came out at 0.0446. Further, the thermal stability score in series [4] (setting [5]) was 0.699; in series [4] (cell cycle stage: mitosis), 5.63.
As for “MAALAPLPPLPAQFKSIQHHLRTAQEHDKRDPVVAYYCRLYAMQTGMKIDSKTPECRKFLSKLMDQLEALKKQLGDNEAITQEIVGCAHLENYALKMFLYADNEDRAGRFHKNMIKSFYTASLLIDVITVFGELTDENVKHRKYARWKATYIHNCLKNGETPQAGPVGIEEDNDIEENEDAGAASLPTQPTQPSSSSTYDPSNMPSGNYTGIQIPPGAHAPANTPAEVPHSTGVASNTIQPTPQTIPAIDPALFNTISQGDVRLTPEDFARAQKYCKYAGSALQYEDVSTAVQNLQKALKLLTTGRE [VTA1]”, in series [1], the “solubility in G1/S (log2)” value came out at 0.0799. Further, the melting temperature in series [2] (cell cycle stage: G1/S) stood at 50.9 °C; in series [2] (cell cycle stage: mitosis), 50.4 °C. In addition, the “solubility change mitosis (log2)” value in series [3] turned out to be 0.325. Besides, the thermal stability score in series [4] (setting [5]) was -1.99; in series [4] (cell cycle stage: mitosis), -2.34.
Take “MAALEEEFTLSSVVLSAGPEGLLGVEQSDKTDQFLVTDSGRTVILYKVSDQKPLGSWSVKQGQIITCPAVCNFQTGEYVVVHDNKVLRIWNNEDVNLDKVFKATLSAEVYRILSVQGTEPLVLFKEGAVRGLEALLADPQQKIETVISDEEVIKWTKFFVVFRHPVLIFITEKHGNYFAYVQMFNSRILTKYTLLLGQDENSVIKSFTASVDRKFISLMSLSSDGCIYETLIPIRPADPEKNQSLVKSLLLKAVVSGNARNGVALTALDQDHVAVLGSPLAASKECLSVWNIKFQTLQTSKELPQGTSGQLWYYGEHLFMLHGKSLTVIPYKCEVSSLAGALGKLKHSQDPGTHVVSHFVNWETPQGCGLGFQNSEQSRRILRRRKIEVSLQPEVPPSKQLLSTIMKDSEKHIEVEVRKFLALKQTPDFHTVIGDTVTGLLERCKAEPSFYPRNCLMQLIQTHVLSYSLCPDLMEIALKKKDVQLLQLCLQQFPDIPESVTCACLKIFLSIGDDSLQETDVNMESVFDYSINSVHDEKMEEQTEILQNGFNPEEDKCNNCDQELNKKPQDETKESTSCPVVQKRAALLNAILHSAYSETFLLPHLKDIPAQHITLFLKYLYFLYLKCSENATMTLPGIHPPTLNQIMDWICLLLDANFTVVVMMPEAKRLLINLYKLVKSQISVYSELNKIEVSFRELQKLNQEKNNRGLYSIEVLELF [NOL11]”: the “solubility in G1/S (log2)” value in series [1] is -0.963. Also, the figures for the melting temperature in series [2] (cell cycle stage: G1/S) and in series [2] (cell cycle stage: mitosis) were 55.1 °C and 52.9 °C, respectively. The “solubility change mitosis (log2)” value in series [3] was found to be 0.471. Moreover, the thermal stability score in series [4] (setting [5]) is -2.5; in series [4] (cell cycle stage: mitosis), -6.66.
As for “MAALGEPVRLERDICRAIELLEKLQRSGEVPPQKLQALQRVLQSEFCNAVREVYEHVYETVDISSSPEVRANATAKATVAAFAASEGHSHPRVVELPKTEEGLGFNIMGGKEQNSPIYISRIIPGGIADRHGGLKRGDQLLSVNGVSVEGEHHEKAVELLKAAQGKVKLVVRYTPKVLEEMESRFEKMRSAKRRQQT [LIN7C]”, the “solubility in G1/S (log2)” value in series [1] amounted to 0.382. Further, the melting temperature was determined as 50.1 °C in series [2] (cell cycle stage: G1/S) and 51.5 °C in series [2] (cell cycle stage: mitosis). Moreover, in series [3], the “solubility change mitosis (log2)” value amounted to 0.202. Also, the thermal stability score in series [4] (setting [5]) is -0.659; in series [4] (cell cycle stage: mitosis) it was -0.713.
Turning to “MAALLRRLLQRERPSAASGRPVGRREANLGTDAGVAVRVRFAPSPTGFLHLGGLRTALYNYIFAKKYQGSFILRLEDTDQTRVVPGAAENIEDMLEWAGIPPDESPRRGGPAGPYQQSQRLELYAQATEALLKTGAAYPCFCSPQRLELLKKEALRNHQTPRYDNRCRNMSQEQVAQKLAKDPKPAIRFRLEQVVPAFQDLVYGWNRHEVASVEGDPVIMKSDGFPTYHLACVVDDHHMGISHVLRGSEWLVSTAKHLLLYQALGWQPPHFAHLPLLLNRDGSKLSKRQGDVFLEHFAADGFLPDSLLDIITNCGSGFAENQMGRTLPELITQFNLTQVTCHSALLDLEKLPEFNRLHLQRLVSNESQRRQLVGKLQVLVEEAFGCQLQNRDVLNPVYVERILLLRQGHICRLQDLVSPVYSYLWTRPAVGRAQLDAISEKVDVIAKRVLGLLERSSMSLTQDMLNGELKKLSEGLEGTKYSNVMKLLRMALSGQQQGPPVAEMMLALGPKEVRERIQKVVSS [EARS2]”, in series [1], the “solubility in G1/S (log2)” value was determined as 0.363. In addition, the melting temperature in series [2] (cell cycle stage: G1/S) came out at 49.2 °C; in series [2] (cell cycle stage: mitosis) it was 49.5 °C. The “solubility change mitosis (log2)” value in series [3] is -0.0812. Besides, the thermal stability score was -0.077 in series [4] (setting [5]) and 1.7 in series [4] (cell cycle stage: mitosis).
For the sequence “MAALRVLLSCVRGPLRPPVRCPAWRPFASGANFEYIIAEKRGKNNTVGLIQLNRPKALNALCDGLIDELNQALKTFEEDPAVGAIVLTGGDKAFAAGADIKEMQNLSFQDCYSSKFLKHWDHLTQVKKPVIAAVNGYAFGGGCELAMMCDIIYAGEKAQFAQPEILIGTIPGAGGTQRLTRAVGKSLAMEMVLTGDRISAQDAKQAGLVSKICPVETLVEEAIQCAEKIASNSKIVVAMAKESVNAAFEMTLTEGSKLEKKLFYSTFATDDRKEGMTAFVEKRKANFKDQ [ECHS1]”, the “solubility in G1/S (log2)” value in series [1] turned out to be 0.518. The results for the melting temperature in series [2] (cell cycle stage: G1/S) and in series [2] (cell cycle stage: mitosis) were 52.8 °C and 53.3 °C, respectively. The “solubility change mitosis (log2)” value in series [3] was 0.0593. Further, the thermal stability score in series [4] (setting [5]) is -1.11; in series [4] (cell cycle stage: mitosis) it was -1.89.
As for “MAAMASLGALALLLLSSLSRCSAEACLEPQITPSYYTTSDAVISTETVFIVEISLTCKNRVQNMALYADVGGKQFPVTRGQDVGRYQVSWSLDHKSAHAGTYEVRFFDEESYSLLRKAQRNNEDISIIPPLFTVSVDHRGTWNGPWVSTEVLAAAIGLVIYYLAFSAKSHIQA [SSR4]”, the “solubility in G1/S (log2)” value in series [1] came to 0.0435. The melting temperature in series [2] (cell cycle stage: G1/S) worked out at 55.5 °C; in series [2] (cell cycle stage: mitosis), 54.9 °C. Besides, the “solubility change mitosis (log2)” value in series [3] came to 0.0331. Moreover, the thermal stability score is 1.62 in series [4] (setting [5]) and -0.139 in series [4] (cell cycle stage: mitosis).
On to “MAAMAVALRGLGGRFRWRTQAVAGGVRGAARGAAAGQRDYDLLVVGGGSGGLACAKEAAQLGRKVAVVDYVEPSPQGTRWGLGGTCVNVGCIPKKLMHQAALLGGLIQDAPNYGWEVAQPVPHDWRKMAEAVQNHVKSLNWGHRVQLQDRKVKYFNIKASFVDEHTVCGVAKGGKEILLSADHIIIATGGRPRYPTHIEGALEYGITSDDIFWLKESPGKTLVVGASYVALECAGFLTGIGLDTTIMMRSIPLRGFDQQMSSMVIEHMASHGTRFLRGCAPSRVRRLPDGQLQVTWEDSTTGKEDTGTFDTVLWAIGRVPDTRSLNLEKAGVDTSPDTQKILVDSREATSVPHIYAIGDVVEGRPELTPIAIMAGRLLVQRLFGGSSDLMDYDNVPTTVFTPLEYGCVGLSEEEAVARHGQEHVEVYHAHYKPLEFTVAGRDASQCYVKMVCLREPPQLVLGLHFLGPNAGEVTQGFALGIKCGASYAQVMRTVGIHPTCSEEVVKLRISKRSGLDPTVTGCUG [TXNRD2]”, for which, in series [1], the “solubility in G1/S (log2)” value stood at 0.0295. Also, the values for the melting temperature in series [2] (cell cycle stage: G1/S) and in series [2] (cell cycle stage: mitosis) were 53.6 °C and 53 °C, respectively. Further, in series [3], the “solubility change mitosis (log2)” value is -0.16. For the same sequence, the thermal stability score in series [4] (setting [5]) was 2.59; in series [4] (cell cycle stage: mitosis), -1.79.
Consider “MAANKPKGQNSLALHKVIMVGSGGVGKSALTLQFMYDEFVEDYEPTKADSYRKKVVLDGEEVQIDILDTAGQEDYAAIRDNYFRSGEGFLCVFSITEMESFAATADFREQILRVKEDENVPFLLVGNKSDLEDKRQVSVEEAKNRAEQWNVNYVETSAKTRANVDKVFFDLMREIRARKMEDSKEKNGKKKRKSLAKRIRERCCIL [RALA]”, for which the “solubility in G1/S (log2)” value in series [1] came out at 0.0126. Further, the melting temperature in series [2] (cell cycle stage: G1/S) turned out to be 58.9 °C; in series [2] (cell cycle stage: mitosis), 57.4 °C. Besides, in series [3], the “solubility change mitosis (log2)” value is -0.0413. Besides, the values for the thermal stability score in series [4] (setting [5]) and in series [4] (cell cycle stage: mitosis) were -3.71 and -3.15, respectively.
